From patent US11708423B2, “Chimeric engulfment receptor molecules and methods of use” (CERO THERAPEUTICS, INC., priority 2017, dated 2023)

Assays:
[1] = system: CER-transduced CD4+ T cells; assay: Mass cytometry (CyTOF) with viSNE marker analysis of CER-transduced CD4+ T cells; format: cell-based, human
Text: CD4+ T cells were transduced with lentiviral vector comprising CER104, CER116, or CER117 nucleic acid. CER104 (SEQ ID NO:133) comprises a Tim4 binding domain, Tim4 transmembrane domain, and an engulfment signaling domain comprising a primary engulfment signaling domain comprising a TLR8 signaling domain and a secondary engulfment signaling domain comprising a DAP12 signaling domain. CER116 (SEQ ID NO:143) comprises a Tim4 binding domain, Tim4 transmembrane domain, and an engulfment signaling domain comprising a primary engulfment signaling domain comprising a TRAF6 signaling domain and a secondary engulfment signaling domain comprising a TLR8 signaling domain. CER117 (SEQ ID NO:144) comprises a Tim4 binding domain, Tim4 transmembrane domain, and an engulfment signaling domain comprising a primary engulfment signaling domain comprising a TLR8 signaling domain and a secondary engulfment signaling domain comprising a TRAF6 signaling domain. CER-transduced CD4+ T cells were co-cultured with E7 TCR-transduced CD8+ T cells and HPV+SCC152 target cells and interrogated by mass cytometry (CyTOF) with viSNE for visualization of high dimensional single cell data (FIGS. 82-84). Intact CER-transduced CD4+ T cells are shown in plots displaying tSNE1 (horizontal) and tSNE2 (vertical) axes. 27 intracellular markers were used for the viSNE analysis. Each dot represents a single cell. […] Red represents high expression and blue represents low expression for each marker. Populations of CD4^+ T cells were generated using a clustering algorithm from all 27 markers and overlaid onto the viSNE map. […] Populations of CD4^+ T cells were generated using a clustering algorithm from all 18 markers and overlaid onto the viSNE map (FIG. 83A). […] Color plots by 18 intracellular markers (CD28, CCR7, CD45RA, PD1, CD127, Perforin, CD49d, CD85j, CD38, CD27, Granzyme B, CD57, CD25, CD69, CD154, CD56, HLA-DR, and TCRγδ) show the phenotype across viSNE ‘islands’ (FIG. 83B). Red represents high expression and blue represents low expression for each marker. Highlighted region with arrow indicates cells expressing T cell activation marker CD69. Populations of CD4^+ T cells were generated using a clustering algorithm from 18 intracellular markers (CD28, CCR7, CD45RA, PD1, CD127, Perforin, CD49d, CD85j, CD38, CD27, Granzyme B, CD57, CD25, CD69, CD154, CD56, HLA-DR, and TCRγ6) and overlaid onto the viSNE map. […] Color plots by the 18 intracellular markers show the phenotype across viSNE ‘islands’ (FIG. 84B). Red represents high expression and blue represents low expression for each marker. Highlighted region with arrow indicates cells expressing the naïve T cell marker CD45RA.

SCC152 cells = assay: LDH cytotoxicity assay, CD4 T cell/CER104 + CD8 T cell/HPV16 E7 TCR co-culture; format: cell-based, human; conditions: CD4/CER + CD8/HPV16 E7 TCR 1:1, 4 hours
Text: LDH is a cytosolic enzyme that is released by a cell into cell culture media when the plasma membrane is damaged. Thus, LDH's presence in culture medium is a marker for cell death. LDH assays are capable of detecting low level damage to cell membrane which cannot be detected using other methods. LDH may be detected using colorimetric or fluorometric methods.

HPV E7 oncoproteins = assay: Antigen cross-presentation, E6/E7 TCR NFAT-luciferase Jurkat reporter; format: cell-based, human; conditions: CD4+ and CD8+ T cells after phagocytosis of SCC152 HPV+ cells, compared to mock
Text: CD4+ and CD8+CER-expressing T cell lines were established from human PBMCs. Purified T cells were transduced with lentivirus encoding CER123 (SEQ ID NO:150) and truncated EGFR (transduction marker), after activation with CD3 & CD28 microbeads, and then expanded in medium containing IL-7, IL-15, and IL-2 for 5 days. The percentage of tEGFR+ T cells ranged between 40-60%.
A Jurkat cell line with a stable integration of an NFAT-inducible Luciferase reporter construct was utilized to study T cell responses. Human E6- and E7-specific engineered TCRs were transduced into Jurkat NFAT reporter cell lines to characterize NFAT activation upon co-culture with engineered CERs.
For assessing MHC-I cross-presentation, SCC152 HPV^+ cells were co-cultured overnight with CER123-expressing CD4+ and CD8+ T cells or mock-transduced (vector only) T cells in the presence of T cells expressing an E7-specific TCR. […] NFAT activation was assessed at serial time points (0, 6, 12, 24, and 72 hrs) by measuring luciferase activity in cell culture supernatants. […] Induction of E711-19 —specific Jurkat T cells were quantified by luminescence of NFAT signaling at indicated time points and compared to Mock (vector-alone) transduced T cells (FIG. 87).

[2] = system: dexamethasone pre-treated thymocytes; assay: Phagocytosis of thymocytes by CER Ba/F3 cells in presence or absence of Racl inhibitor; format: cell-based; conditions: Ba/F3 cells, 6 hour co-culture

B1: CER104: Tim4 binding and transmembrane domains, TLR8 primary and DAP12 secondary signaling domains; SEQ ID NO:133 (protein)
chain: MSKGLLLLWLVTELWWLYLTPAASEDTIIGFLGQPVTLPCHYLSWSQSRNSMCWGKGSCPNSKCNAELLRTDGTRIISRKSTKYTLLGKVQFGEVSLTISNTNRGDSGVYCCRIEVPGWFNDVKKNVRLELRRATTTKKPTTTTRPTTTPYVTTTTPELLPTTVMTTSVLPTTTPPQTLATTAFSTAVTTCPSTTPGSFSQETTKGSAFTTESETLPASNHSQRSMMTISTDIAVLRPTGSNPGILPSTSQLTTQKTTLTTSESLQKTTKSHQINSRQTILIIACCVGFVLMVLLFLAFLHHLFYWDVWFIYNVCLAKVKGYRSLSTSQTFYDAYISYDTKDASVTDWVINELRYHLEESRDKNVLLCLEERDWDPGLAIIDNLMQSINQSKKTVFVLTKKYAKSWNFKTAFYLALQRLMDENMDVIIFILLEPVLQHSQYLRLRQRICKSSILQWPDNPKAEGLFWQTLRNVVLTENDSRYNNMYVDSIKQYYFLGRLVPRGRGAAEAATRKQRITETESPYQELQGQRSDVYSDLNTQRPYYK
modifications: CER104 protein
memory formation after antigen encounter ([1]; CD4+ T cells): associated with memory formation after antigen encounter | viSNE islands expressing T cell activation marker CD69 ([1]; CD4+ T cells after antigen encounter): enrichment of islands expressing the T cell activation marker CD69 | viSNE islands expressing intracellular marker IFNγ ([1]; CD4+ T cells after co-culture with E7 TCR CD8+ T cells and SCC152 cells): enrichment of islands expressing the intracellular marker IFNγ | viSNE islands expressing naïve T cell marker CD45RA within the CCR7+ population ([1]; compared to controls): loss of islands expressing the naïve T cell marker CD45RA | cytolytic activity (LDH cytotoxicity assay) (SCC152 cells): enhanced cytolytic activity

B2: CER123: Tim4 binding and transmembrane domains, TLR2 primary and TRAF6 secondary signaling domains; SEQ ID NO:150 (protein)
chain: MSKGLLLLWLVTELWWLYLTPAASEDTIIGFLGQPVTLPCHYLSWSQSRNSMCWGKGSCPNSKCNAELLRTDGTRIISRKSTKYTLLGKVQFGEVSLTISNTNRGDSGVYCCRIEVPGWFNDVKKNVRLELRRATTTKKPTTTTRPTTTPYVTTTTPELLPTTVMTTSVLPTTTPPQTLATTAFSTAVTTCPSTTPGSFSQETTKGSAFTTESETLPASNHSQRSMMTISTDIAVLRPTGSNPGILPSTSQLTTQKTTLTTSESLQKTTKSHQINSRQTILIIACCVGFVLMVLLFLAFLHRFHGLWYMKMMWAWLQAKRKPRKAPSRNICYDAFVSYSERDAYWVENLMVQELENFNPPFKLCLHKRDFIPGKWIIDNIIDSIEKSHKTVFVLSENFVKSEWCKYELDFSHFRLFDENNDAAILILLEPIEKKAIPQRFCKLRKIMNTKTYLEWPMDEAQREGFWVNLRAAIKSMSLLNCENSCGSSQSESDCCVAMASSCSAVTKDDSVGGTASTGNLSSSFMEEIQGYDVEFDPPLESKYECPICLMALREAVQTPCGHRFCKACIIKSIRDAGHKCPVDNEILLENQLFPDNFAKREILSLMVKCPNEGCLHKMELRHLEDHQAHCEFALMDCPQCQRPFQKFHINIHILKDCPRRQVSCDNCAASMAFEDKEIHDQNCPLANVICEYCNTILIREQMPNHYDLDCPTAPIPCTFSTFGCHEKMQRNHLARHLQENTQSHMRMLA
modifications: CER123 protein
cross-presentation of HPV E7 oncoproteins (NFAT activation) (HPV E7 oncoproteins): enhanced cross-presentation efficiency of HPV E7 oncoproteins

B3: CER21: Tim4 binding and transmembrane domains, TLR8 signaling domain; SEQ ID NO:88 (protein)
chain: MSKGLLLLWLVTELWWLYLTPAASEDTIIGFLGQPVTLPCHYLSWSQSRNSMCWGKGSCPNSKCNAELLRTDGTRIISRKSTKYTLLGKVQFGEVSLTISNTNRGDSGVYCCRIEVPGWFNDVKKNVRLELRRATTTKKPTTTTRPTTTPYVTTTTPELLPTTVMTTSVLPTTTPPQTLATTAFSTAVTTCPSTTPGSFSQETTKGSAFTTESETLPASNHSQRSMMTISTDIAVLRPTGSNPGILPSTSQLTTQKTTLTTSESLQKTTKSHQINSRQTILIIACCVGFVLMVLLFLAFLHHLFYWDVWFIYNVCLAKVKGYRSLSTSQTFYDAYISYDTKDASVTDWVINELRYHLEESRDKNVLLCLEERDWDPGLAIIDNLMQSINQSKKTVFVLTKKYAKSWNFKTAFYLALQRLMDENMDVIIFILLEPVLQHSQYLRLRQRICKSSILQWPDNPKAEGLFWQTLRNVVLTENDSRYNNMYVDSIKQY
modifications: CER21 chimeric engulfment receptor
pHrodo+ signal (phagocytosis of thymocytes), FACS [2]: considerable pHrodo+ signal indicating phagocytosis of target thymocytes
